Measurements from PMC3034293 (Biochemistry, 2011).

Biological target: the molecule itself
Assay: SEC

B1: Wild-type aldolase B (enzyme, human, UniProt P05062 1-364, looked up)
chain: MAHRFPALTQEQKKELSEIAQSIVANGKGILAADESVGTMGNRLQRIKVENTEENRRQFREILFSVDSSINQSIGGVILFHETLYQKDSQGKLFRNILKEKGIVVGIKLDQGGAPLAGTNKETTIQGLDGLSERCAQYKKDGVDFGKWRAVLRIADQCPSSLAIQENANALARYASICQQNGLVPIVEPEVIPDGDHDLEHCQYVTEKVLAAVYKALNDHHVYLEGTLLKPNMVTAGHACTKKYTPEQVAMATVTALHRTVPAAVPGICFLSGGMSEEDATLNLNAINLCPLPKPWKLSFSYGRALQASALAAWGGKAANKEATQEAFMKRAMANCQAAKGQYVHTGSSGAASTQSLFTACYTY
B1 was tested, and the “stoichiometry N” value was 4.
